In US20200206342A1:

Tests used:
[1] = molecular target: purified soluble 8his-tagged BG505 SOSIP.664 (T332N), wildtype (HIV-1 strain BG505); experiment: ELISA, his-tagged SOSIP on nickel-coated plate, peroxidase anti-human IgG-Fc, OD 630 nm
[2] = molecular target: purified soluble 8his-tagged BG505-QES.i03.c01 SOSIP (HIV-1 strain BG505); experiment: ELISA, purified 8his SOSIP on nickel-coated plate
[3] = molecular target: purified soluble 8his-tagged BG505 SOSIP.664 (T332N), wildtype (HIV-1 strain BG505); experiment: ELISA, his-tagged SOSIP on copper-coated plate, peroxidase anti-human IgG-Fc, OD 630 nm
[4] = molecular target: purified soluble 8his-tagged BG505-QES.i03.c01 SOSIP (HIV-1 strain BG505); experiment: as above
[5] = molecular target: Q842.d12 Env P124D + F223Y + R557Q + I595M (Q842-QES.i04) (HIV-1 strain Q842.d12); experiment: flow cytometry, Expi293F cells
[6] = molecular target: DU422 gp140 (surface-displayed ectodomain) (HIV-1 strain DU422); experiment: apparent dissociation constant, flow cytometry on Expi293F cells
[7] = molecular target: Q842.d12 Env P124D + F223Y + R557Q + I595M (Q842-QES.i04) (HIV-1 strain Q842.d12); experiment: apparent KD, flow cytometry titration on Expi293F cells
[8] = molecular target: BaL Env T49D + P124D + L663N (BaL-QES.i02) (HIV-1 strain BaL); experiment: as above
[9] = molecular target: Q769.d22 Env gp160 wildtype (HIV-1 strain Q769.d22); experiment: as above
[10] = molecular target: BaL Env T49D + P124D + I595M (BaL-QES.i01) (HIV-1 strain BaL); experiment: as above
[11] = molecular target: Q769.d22 Env A200E + F223Y + I595M (Q769-QES.i03) (HIV-1 strain Q769.d22); experiment: as above
[12] = molecular target: BaL Env gp160 wildtype (HIV-1 strain BaL); experiment: as above
[13] = molecular target: Q842.d12 Env gp160 wildtype (HIV-1 strain Q842.d12); experiment: as above
[14] = molecular target: Q769.d22 Env QES.i03 + V255M (QES.i03.V255M) (HIV-1 strain Q769.d22); experiment: flow cytometry titration on cells
[15] = molecular target: Q842.d12 Env QES.i04 + I181L (QES.i04.I181L) (HIV-1 strain Q842.d12); experiment: flow cytometry titration on cells
[16] = molecular target: BaL Env QES.i01 + I181L + V255M (QES.i01.c01) (HIV-1 strain BaL); experiment: flow cytometry titration on cells
[17] = molecular target: DU422 Env V181L + V254T + V255M (QES.c03) (HIV-1 strain DU422); experiment: flow cytometry titration on cells
[18] = molecular target: 25711 Env I181L + V254T (QES.c02) (HIV-1 strain 25711); experiment: flow cytometry titration on cells
[19] = molecular target: Q842.d12 Env P124D + F223Y + R557Q + I595M (Q842-QES.i04) (HIV-1 strain Q842.d12); experiment: flow cytometry titration on Expi293F cells
[20] = molecular target: BaL Env T49D + P124D + L663N (BaL-QES.i02) (HIV-1 strain BaL); experiment: flow cytometry titration on Expi293F cells
[21] = molecular target: BaL Env T49D + P124D + I595M (BaL-QES.i01) (HIV-1 strain BaL); experiment: flow cytometry titration on Expi293F cells
[22] = molecular target: Q769.d22 Env A200E + F223Y + I595M (Q769-QES.i03) (HIV-1 strain Q769.d22); experiment: flow cytometry titration on Expi293F cells
[23] = molecular target: Y191I; experiment: flow cytometry, 2 nM PG16, transfected Expi293F cells, percent of cells in the positive gate (Negative: 0.5 %, 0.5 %)
[24] = molecular target: I251S; experiment: as above
[25] = molecular target: I491S; experiment: as above
[26] = molecular target: F159V; experiment: as above
[27] = molecular target: K617Q; experiment: as above
[28] = molecular target: V36R; experiment: as above
[29] = molecular target: V208G; experiment: as above
[30] = molecular target: T319K; experiment: as above
[31] = molecular target: I201M; experiment: as above
[32] = molecular target: E634A; experiment: as above
[33] = molecular target: T248E; experiment: as above
[34] = molecular target: W614A; experiment: as above
[35] = molecular target: Q540V; experiment: as above
[36] = molecular target: W338A; experiment: as above
[37] = molecular target: I686R; experiment: as above
[38] = molecular target: BaL Env gp160 wildtype (HIV-1 strain BaL); experiment: as above
[39] = molecular target: S199C; experiment: as above
[40] = molecular target: F93G; experiment: as above
[41] = molecular target: F223L; experiment: as above
[42] = molecular target: D133W; experiment: as above
[43] = molecular target: C331I; experiment: as above
[44] = molecular target: Q842.d12 Env gp160 wildtype (HIV-1 strain Q842.d12); experiment: flow cytometry titration, transfected cells expressing the Env

Substance: CD4-IgG2 (Fc fusion)
- EC50 (read off the curve) [1]: 80 ng/mL
- fold reduction of apparent affinity against wildtype [2]: 5.5 fold

Substance: VRC01 (antibody)
- EC50 (read off the curve) [3]: 1 nM
- EC50 (read off the curve) [4]: 1 nM

Substance: soluble CD4 sCD4-183 (domains D1-D2) (from UniProt P01730 26-208) (receptor)
- fold increase in soluble CD4 binding against wildtype [5]: 3 fold
- Kd [6]: 18 nM

Substance: PG16 (antibody)
- Kd [7]: 5 nM
- Kd [8]: 1.4 nM
- Kd [9]: 5 nM
- Kd [10]: 1.2 nM
- Kd [11]: 3.7 nM
- Kd [12]: 4 nM
- Kd [13]: 3.4 nM
- Kd [6]: 5 nM
- fold more PG16 bound at saturation against wildtype [14]: < 5 fold
- fold more PG16 bound at saturation against wildtype [15]: < 5 fold
- fold more PG16 bound at saturation against wildtype [16]: < 5 fold
- fold more PG16 bound at saturation against wildtype [17]: < 5 fold
- fold more PG16 bound at saturation against wildtype [18]: < 5 fold
- fold increase in PG16 binding signal at saturation against wildtype [19]: 2.4 fold
- fold increase in PG16 binding at saturation against wildtype [20]: 1.6 fold
- fold increase in PG16 binding at saturation against wildtype [21]: 1.6 fold
- fold higher binding at saturation against wildtype [22]: 2.7 fold
- percent positive cells (first of two replicates) [23]: 1.9%
- percent positive cells (second of two replicates) [23]: 1.9%
- percent positive cells (first of two replicates) [24]: 6.1%
- percent positive cells (second of two replicates) [24]: 4.2%
- percent positive cells (first of two replicates) [25]: 1.3%
- percent positive cells (second of two replicates) [25]: 2.1%
- percent positive cells (first of two replicates) [26]: 1.4%
- percent positive cells (second of two replicates) [26]: 1.7%
- percent positive cells (first of two replicates) [27]: 15%
- percent positive cells (second of two replicates) [27]: 14.8%
- percent positive cells (first of two replicates) [28]: 2.1%
- percent positive cells (second of two replicates) [28]: 2.6%
- percent positive cells (first of two replicates) [29]: 21.6%
- percent positive cells (second of two replicates) [29]: 22.5%
- percent positive cells (first of two replicates) [30]: 20.3%
- percent positive cells (second of two replicates) [30]: 18.8%
- percent positive cells (first of two replicates) [31]: 29.5%
- percent positive cells (second of two replicates) [31]: 29.8%
- percent positive cells (first of two replicates) [32]: 11.1%
- percent positive cells (second of two replicates) [32]: 9.3%
- percent positive cells (first of two replicates) [33]: 1.1%
- percent positive cells (second of two replicates) [33]: 2%
- percent positive cells (first of two replicates) [34]: 1.2%
- percent positive cells (second of two replicates) [34]: 2.1%
- percent positive cells (first of two replicates) [35]: 2.4%
- percent positive cells (second of two replicates) [35]: 3%
- percent positive cells (first of two replicates) [36]: 1.3%
- percent positive cells (second of two replicates) [36]: 2%
- percent positive cells (first of two replicates) [37]: 5%
- percent positive cells (second of two replicates) [37]: 5.9%
- percent positive cells (first of two replicates) [38]: 38%
- percent positive cells (second of two replicates) [38]: 36.2%
- percent positive cells (first of two replicates) [39]: 1.2%
- percent positive cells (second of two replicates) [39]: 1.6%
- percent positive cells (first of two replicates) [40]: 1.4%
- percent positive cells (second of two replicates) [40]: 2.1%
- percent positive cells (first of two replicates) [41]: 11.2%
- percent positive cells (second of two replicates) [41]: 10.7%
- percent positive cells (first of two replicates) [42]: 16%
- percent positive cells (second of two replicates) [42]: 16%
- percent positive cells (first of two replicates) [43]: 1.4%
- percent positive cells (second of two replicates) [43]: 1.9%
- EC50 (read off the curve) [3]: 0.4 nM
- EC50 (read off the curve) [4]: 0.2 nM

Substance: PGT145 (antibody)
- EC50 (read off the curve) [44]: 0.5 nM
